According to FireProtDB (doi:10.1016/0022-2836(82)90184-x):

B1: Tryptophan synthase alpha chain, P0A877 (parent)
chain: MERYESLFAQLKERKEGAFVPFVTLGDPGIEQSLKIIDTLIEAGADALELGIPFSDPLADGPTIQNATLRAFAAGVTPAQCFEMLALIRQKHPTIPIGLLMYANLVFNKGIDEFYAQCEKVGVDSVLVADVPVEESAPFRQAALRHNVAPIFICPPNADDDLLRQIASYGRGYTYLLSRAGVTGAENRAALPLNHLVAKLKEYNAAPPLQGFGISAPDQVKAAIDAGAAGAISGSAIVKIIEQHINEPEKMLAALKVFVQPMKAATRS

Variants of: B1
Settings: Escherichia coli (strain K12), 25 °C, GdnHCl, CD, reversible: yes, structure 1WQ5, whole UniProt chain shown
[1] = pH 7, Potassium phosphate 0.01 M

Variant	ddG of mutation (higher = less stable) (pH 5.5, acetate 0.05 M) [kcal/mol]	unfolding free energy (pH 5.5, acetate 0.05 M) [kcal/mol]	ddG of mutation (higher = less stable) [1] [kcal/mol]	unfolding free energy [1] [kcal/mol]	ddG of mutation (higher = less stable) (pH 9, Tris-HCl 0.025 M) [kcal/mol]	unfolding free energy (pH 9, Tris-HCl 0.025 M) [kcal/mol]
E49M	-0.7	5.9	-4.5	13.3	-3.5	8.4
E49V	-0.9	6.1	-3.2	12	-4.5	9.4
E49Y	0.4	4.8	0	8.8	-1.9	6.8
E49S	1.3	3.9	1.4	7.4	-3.1	8
E49Q	2.4	2.8	2.5	6.3	-3.6	8.5
